Measurements as given in patent US20240391954A1, “MC4R AGONIST PEPTIDES” (The Regents of the University of Michigan, priority 2021, published 2024).
Positions of bridges follow the written chain, without caps; N, C: chain ends. Non-standard residues stand in square brackets, D forms with d. 1Nal = N[C@@H](Cc1cccc2ccccc12)C(=O)O; d1Nal = N[C@H](Cc1cccc2ccccc12)C(=O)O; 3Pal = N[C@@H](Cc1cccnc1)C(=O)O; 4Pal = N[C@@H](Cc1ccncc1)C(=O)O; Cit = NC(=O)NCCC[C@H](N)C(=O)O; Nle = CCCC[C@H](N)C(=O)O; Aib = CC(C)(N)C(=O)O

B1: CTX-1610 (peptide)
peptide: Ac-R[Nle]CH[1Nal]RWC-NH2
modifications: disulfide 3-8
SMILES: CCCC[C@H](NC(=O)[C@H](CCCNC(=N)N)NC(C)=O)C(=O)N[C@H]1CSSC[C@@H](C(N)=O)NC(=O)[C@H](Cc2c[nH]c3ccccc23)NC(=O)[C@H](CCCNC(=N)N)NC(=O)[C@H](Cc2cccc3ccccc23)NC(=O)[C@H](Cc2c[nH]cn2)NC1=O
B2: CTX-1611 (peptide)
peptide: Ac-R[Nle]CR[d1Nal]RWC-NH2
modifications: disulfide 3-8
SMILES: CCCC[C@H](NC(=O)[C@H](CCCNC(=N)N)NC(C)=O)C(=O)N[C@H]1CSSC[C@@H](C(N)=O)NC(=O)[C@H](Cc2c[nH]c3ccccc23)NC(=O)[C@H](CCCNC(=N)N)NC(=O)[C@@H](Cc2cccc3ccccc23)NC(=O)[C@H](CCCNC(=N)N)NC1=O
B3: CTX-1609 (peptide)
peptide: Ac-R[Nle]C[Cit]FRWC-NH2
modifications: disulfide 3-8
SMILES: CCCC[C@H](NC(=O)[C@H](CCCNC(=N)N)NC(C)=O)C(=O)N[C@H]1CSSC[C@@H](C(N)=O)NC(=O)[C@H](Cc2c[nH]c3ccccc23)NC(=O)[C@H](CCCNC(=N)N)NC(=O)[C@H](Cc2ccccc2)NC(=O)[C@H](CCCNC(N)=O)NC1=O
B4: CTX-1608 (peptide)
peptide: Ac-R[Nle]C[Cit][dF]R[dW]C-NH2
modifications: disulfide 3-8
SMILES: CCCC[C@H](NC(=O)[C@H](CCCNC(=N)N)NC(C)=O)C(=O)N[C@H]1CSSC[C@@H](C(N)=O)NC(=O)[C@@H](Cc2c[nH]c3ccccc23)NC(=O)[C@H](CCCNC(=N)N)NC(=O)[C@@H](Cc2ccccc2)NC(=O)[C@H](CCCNC(N)=O)NC1=O
B5: CTX-1605 (peptide)
peptide: Ac-RC[Aib][3Pal][dF]RFC-NH2
modifications: disulfide 2-8
SMILES: CC(=O)N[C@@H](CCCNC(=N)N)C(=O)N[C@H]1CSSC[C@@H](C(N)=O)NC(=O)[C@H](Cc2ccccc2)NC(=O)[C@H](CCCNC(=N)N)NC(=O)[C@@H](Cc2ccccc2)NC(=O)[C@H](Cc2cccnc2)NC(=O)C(C)(C)NC1=O
B6: CTX-1606 (peptide)
peptide: Ac-RC[Aib][4Pal][dF]RFC-NH2
modifications: disulfide 2-8
SMILES: CC(=O)N[C@@H](CCCNC(=N)N)C(=O)N[C@H]1CSSC[C@@H](C(N)=O)NC(=O)[C@H](Cc2ccccc2)NC(=O)[C@H](CCCNC(=N)N)NC(=O)[C@@H](Cc2ccccc2)NC(=O)[C@H](Cc2ccncc2)NC(=O)C(C)(C)NC1=O

Target: human MC3R (human, UniProt P41968 1-323)
Assay: cell-based or functional assay

Chain of human MC3R (P41968 whole entry): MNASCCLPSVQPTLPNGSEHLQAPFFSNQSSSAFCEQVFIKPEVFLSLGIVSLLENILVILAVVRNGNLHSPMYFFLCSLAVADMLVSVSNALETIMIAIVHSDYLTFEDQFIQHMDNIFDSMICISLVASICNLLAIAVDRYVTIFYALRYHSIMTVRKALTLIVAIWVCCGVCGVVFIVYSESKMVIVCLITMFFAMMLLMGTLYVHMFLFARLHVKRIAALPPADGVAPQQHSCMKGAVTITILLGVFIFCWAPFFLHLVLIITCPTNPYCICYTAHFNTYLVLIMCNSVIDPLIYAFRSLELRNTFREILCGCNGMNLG

Binder	% max activation	cAMP EC50
B1	67%	163 nM
B2	58%	11 nM
B3	65%	407 nM
B4	19%	274 nM
B5		> 10000 nM
B6	7.69%	82 nM

Target: T1, human MC4R receptor (human, UniProt P32245 1-332)
Assay: cell-based or functional assay

T1 sequence (P32245 whole entry): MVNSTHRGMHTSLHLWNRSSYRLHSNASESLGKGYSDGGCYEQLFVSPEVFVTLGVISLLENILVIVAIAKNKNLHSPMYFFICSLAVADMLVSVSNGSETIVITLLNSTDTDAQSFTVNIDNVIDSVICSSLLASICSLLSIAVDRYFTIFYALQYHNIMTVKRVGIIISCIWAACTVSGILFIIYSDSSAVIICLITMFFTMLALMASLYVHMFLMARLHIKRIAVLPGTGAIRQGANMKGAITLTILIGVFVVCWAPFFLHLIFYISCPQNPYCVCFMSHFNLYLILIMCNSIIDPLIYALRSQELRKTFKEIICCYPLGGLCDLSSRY

Binder	% max activation	cAMP EC50
B1	90%	247 nM
B2	67%	1.6 nM
B3	96%	86 nM
B4	79%	288 nM
B5	85%	33 nM
B6	92%	133 nM

Target: T1, human MC4R receptor
Assay: cell-based or functional assay
Remark: another data set of the same source

Binder	MC4R selectivity vs MC1R	MC4R selectivity vs MC3R
B1	0.03	0.66
B2	0.25	6.61
B3	4.15	4.72
B4	2.07	0.95
B5	0.14	> 300
B6	2.99	0.62
